In US20170305994A1 one finds fold response, DR3 reporter, 40 ng/ml TL1A alone data, which are given here for 1 molecule.

The assay addresses T1, human DR3 (full length, on cells) (human) (UniProt Q93038).
T1 sequence: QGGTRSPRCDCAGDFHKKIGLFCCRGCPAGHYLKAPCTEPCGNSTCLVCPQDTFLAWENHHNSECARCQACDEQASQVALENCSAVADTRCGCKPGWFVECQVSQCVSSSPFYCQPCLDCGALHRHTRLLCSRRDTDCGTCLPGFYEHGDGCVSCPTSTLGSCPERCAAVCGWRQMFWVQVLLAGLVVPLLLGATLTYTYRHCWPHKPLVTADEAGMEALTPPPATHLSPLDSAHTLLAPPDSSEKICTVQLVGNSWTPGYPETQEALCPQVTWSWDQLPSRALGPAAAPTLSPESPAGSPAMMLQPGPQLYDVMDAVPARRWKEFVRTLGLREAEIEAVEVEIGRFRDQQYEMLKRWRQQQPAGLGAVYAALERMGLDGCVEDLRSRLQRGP
The experiment in a line: cell-based or functional assay.

B1: TL1A (R&D Systems) (ligand, UniProt O95150 72-251, looked up)
chain: LKGQEFAPSHQQVYAPLRADGDKPRAHLTVVRQTPTQHFKNQFPALHWEHELGLAFTKNRMNYTNKFLLIPESGDYFIYSQVTFRGMTSECSEIRQAGRPNKPDSITVVITKVTDSYPEPTQLLMGTKSVCEVGSNWFQPIYLGAMFSLQEGDKLMVNVSDISLVDYTKEDKTFFGAFLL
In the case of B1, the fold response, DR3 reporter, 40 ng/ml TL1A alone was 32.8 fold.
